{
  "source": "paper PMC5856820",
  "about": "“HIV envelope V3 region mimic embodies key features of a broadly neutralizing antibody lineage epitope” (Nature Communications, 2018)",
  "key": {"[1]": {"target": "biotinylated Man9-V3 glycopeptide (HIV-1 (strain JRFL))", "test": "BLI; BLItz instrument; 0.2 mg/ml biotinylated Man9-V3 immobilised on a streptavidin biosensor; DH270.6 Fab at 40, 15, 5, 1.5 and 0.25 μM; 22 °C; duplicate measurements; kd calculated as the product of ka and KD"}, "wild-type 92BR SOSIP.664": {"target": "wild-type 92BR SOSIP.664", "test": "Biolayer interferometry (Octet QKe), Fab binding to wild-type 92BR SOSIP.664 Env trimer", "design": "species or system HIV-1", "conditions": "for Kd / change in Env interaction/affinity of DH270.6 mutant relative to DH270.6: Table 2; for Kd: Fab 0.2 mg/ml immobilized on anti-Human Fab-CH1 biosensor, trimer 0.1 μM to 0.6 μM, association and dissociation 5 min each, 1000 rpm, duplicate measurements, error SEM, read-out: KD of Fab complexes with wild-type 92BR SOSIP.664; for change in Env interaction/affinity of DH270.6 mutant relative to DH270.6: 92BR SOSIP.664 Env trimer", "experimental": "(§1) The SOSIP.664 constructs were cloned into the same pVRC-8400 vector described above for Fabs and any mutations were added by site-directed mutagenesis using manufacturer’s protocols (Stratagene). SOSIP.664 constructs were transfected along with a plasmid encoding the cellular protease furin at a 3:1 Env:furin ratio in 293F cells, adapted to grow in suspension from HEK293T cells (ATCC: CRL-3216). The expression construct of furin was kindly provided by Bing Chen (Boston Children’s Hospital, Boston, MA). The cells were allowed to express soluble SOSIP trimers for 5–7 days, and gp120 monomers were expressed for 5 days. Culture supernatants were collected and cells were removed by centrifugation at 3800 × g for 20 min, and filtered with a 0.2 µm pore size filter. Envs were purified by flowing the supernatant over a lectin (Galanthus nivalis) affinity chromatography column overnight at 4 °C. The lectin column was washed with 1× PBS, followed by a second wash with 1× PBS and 0.5 M NaCl and proteins were eluted with 1× PBS supplemented with 0.5 M methyl-α-D-mannopyranoside and 0.5 M NaCl. The eluate was concentrated and loaded onto a Superdex 200 10/300 GL column (GE Life Sciences) pre-equilibrated in a buffer of 2.5 mM Tris, pH 7.5, 350 mM NaCl and 0.02% sodium azide for BLI and in 10 mM Hepes, pH 8.0, 150 mM NaCl and 0.02% sodium azide for negative stain EM, to separate the trimer-size oligomers from aggregates and gp140 monomers and to separate gp120 monomers from aggregates.\nKinetic measurements of Fab binding to the SOSIP.664 constructs were carried out using the Octet QK^e system (ForteBio); 0.2 mg/ml of each His-tagged Fab was immobilized onto a anti-Human Fab-CH1 biosensor until it reached saturation. The SOSIP.664 trimers were tested at concentrations of 0.1 μM to 0.6 μM. A reference sample of buffer alone was used to account for any signal drift that was observed during the experiment. Association and dissociation were each monitored for 5 min. All experiments were conducted in the Octet instrument with agitation at 1000 rpm.\nAnalyses were performed using nonlinear regression curve fitting using the Graphpad Prism software, version 7."}, "92BR SOSIP.664 trimer": {"tested_on": "92BR SOSIP.664 trimer", "test": "Negative stain EM of DH270.6 Fab-92BR SOSIP.664 complex", "design": "species or system HIV-1", "conditions": "negatively stained EM; 6 molar excess of Fab, 4 °C, 1.5 h", "experimental": "A 2.5 µl aliquot containing ∼0.01 mg/ml of the Fab-92BR SOSIP.664 complex was applied for 30 s onto a carbon-coated 400 Cu mesh grid that had been glow discharged at 5 mA for 2 min, followed by negative staining with 0.7% uranyl formate for 20 s. Samples were imaged using a FEI Tecnai T12 microscope operated at 120 kV and a magnification of ×52,000, yielding a pixel size of 2.13 Å at the specimen plane. Images were acquired with a Gatan 2 K CCD camera using a nominal defocus of 1500 nm at 10° tilt increments, up to 50°. The tilts provided additional particle orientations to improve the image reconstructions.\nParticles were picked semi-automatically using EMAN2 and put into a particle stack. Initial, reference-free, two-dimensional (2D) class averages were calculated, and particles corresponding to complexes (with three Fabs bound) were selected into a substack for determination of an initial model. The initial model was calculated in EMAN2 using threefold symmetry and EMAN2 was used for subsequent refinement using threefold symmetry. In total, 12,941 particles were included in the final reconstruction for the 3D average of 92BR SOSIP.664 trimer complex with DH270.6. The resolution of the final model was estimated using a Fourier Shell Correlation (FSC) cut-off of 0.5. […]"}, "[2]": {"tested_on": "HIV-1 (autologous and heterologous viruses)", "conditions": "cited from earlier work", "excerpt": "A synthetic V3-loop glycopeptide (“Man9-V3”), described recently, presents the conformational epitopes needed for the binding of N332 glycan-dependent bnAbs[24], [25]. The peptide design derives from the JRFL mini-V3 gp120 outer domain, used previously for determining a crystal structure with the Fab of bnAb PGT128[9]. The synthetic V3 glycopeptide, which has Man9 glycans (Man9GlcNAc2) at N332 and N301[24] and a 14-residue tip deleted, was used to identify the V3-glycan bnAb DH270.6 (12.9% mutated nucleotides and 71% neutralization breadth[12]) by labeling the B-cell receptor (BCR) on cells fr ... || We describe here a high-resolution crystal structure of “Man9-V3” bound with the single chain variable fragment (scFv) of the N332-glycan dependent bnAb, DH270.6. We have also determined a structure of the Fab of a clonally related member of this lineage, DH270.3 (11.8% mutated nucleotides and 42% neutralization breadth), in complex with a synthetic Man9 glycan. These clonally related antibodies have similar numbers of mutation, but their neutralization breadth and potency differ substantially. Through structural analysis of these two related antibodies, we can account for differences in b ... || Somatic hypermutation is biased by the preference of the activation-induced cytidine deaminase (AID) for certain microsequence motifs (“hot spots”)[28], [29]. […]"}, "[3]": {"tested_on": "R327A mutant of 92BR SOSIP.664 Env", "test": "Biolayer interferometry (Octet QKe), DH270.6 Fab binding to R327A mutant 92BR SOSIP.664 Env trimer", "design": "species or system HIV-1", "experimental": "as §1, with “The eluate was concentrated and loaded onto a Superdex 200 10/300 GL column (GE Life Sciences) pre-equilibrated in a buffer of 2.5 mM Tris, pH 7.5, 350 mM NaCl and 0.02% sodium azide for BLI and in 10 mM Hepes, pH 8.0, 150 mM NaCl and 0.02% sodium azide for negative stain EM, to separate the trimer-size oligomers from aggregates and gp140 monomers and to separate gp120 monomers from aggregates.” left out\nKinetic measurements of Fab binding to the SOSIP.664 constructs were carried out using the Octet QK^e system (ForteBio); 0.2 mg/ml of each His-tagged Fab was immobilized onto a anti-Human Fab-CH1 biosensor until it reached saturation. […] Association and dissociation were each monitored for 5 min. […]"}, "DH270.6 Fab (human) [4]": {"target": "DH270.6 Fab (human)", "test": "BLI"}, "DH270.6 Fab (human) [5]": {"target": "DH270.6 Fab (human)", "test": "BLI; Octet QKe; 0.2 mg/ml His-tagged Fab immobilised on an anti-Human Fab-CH1 biosensor; SOSIP.664 trimers at 0.1 to 0.6 μM; association and dissociation 5 min each; agitation 1000 rpm"}, "[6]": {"target": "DH270.6 Fab S103G (heavy chain) (human)", "test": "BLI"}, "[7]": {"target": "DH270.6 Fab T98R (heavy chain) (human)", "test": "BLI"}, "[8]": {"target": "DH270.6 Fab Y48L (light chain) (human)", "test": "BLI"}, "DH270.6 Fab (human) [9]": {"target": "DH270.6 Fab (human)", "test": "BLI; Octet QKe; 0.2 mg/ml His-tagged Fab immobilised on an anti-Human Fab-CH1 biosensor; SOSIP.664 trimers at 0.1 to 0.6 μM; association and dissociation 5 min each; agitation 1000 rpm", "remark": "listed apart in the source"}},
  "data": [
    {"molecule": "DH270.6 Fab", "values": [
      {"measurement": "Kd", "setting": "[1]", "result": 7000, "unit": "nM"}
    ]},
    {"molecule": "DH270.6: V3-glycan broadly neutralizing antibody of DH270 lineage from HIV-1 infected donor CH848", "values": [
      {"measurement": "Kd", "setting": "wild-type 92BR SOSIP.664", "result": "11 ± 1", "unit": "nM"},
      {"measurement": "DH270.6 Fabs bound per trimer", "setting": "92BR SOSIP.664 trimer", "result": "three"},
      {"measurement": "neutralization breadth", "setting": "[2]", "result": 71, "unit": "%"},
      {"measurement": "affinity of Env R327A mutant for DH270.6 relative to wild-type", "setting": "[3]; Fig. 4a, compared with wild-type counterpart", "result": "only a slightly lower affinity"},
      {"measurement": "Kd", "setting": "[3]; read-out: KD, R327A mutant 92BR SOSIP.664 Env tested with DH270.6 Fab, Fig. 4a legend, Fab immobilized on anti-Human Fab-CH1 biosensor, trimer 0.1 μM to 0.6 μM", "result": 7.64, "unit": "nM"}
    ]},
    {"molecule": "92BR SOSIP.664 Env trimer, R327A mutant (complex)", "values": [
      {"measurement": "Kd", "setting": "DH270.6 Fab (human) [4]", "result": 7.64, "unit": "nM"}
    ]},
    {"molecule": "DH270.6 S103GH: DH270.6 Fab with heavy-chain S103G mutation", "values": [
      {"measurement": "change in Env interaction/affinity of DH270.6 mutant relative to DH270.6", "setting": "wild-type 92BR SOSIP.664; Fig. 4b", "result": "weakens the Env interaction twofold"},
      {"measurement": "Kd", "setting": "wild-type 92BR SOSIP.664", "result": "19 ± 1", "unit": "nM"}
    ]},
    {"molecule": "92BR SOSIP.664 Env trimer, wild type (complex)", "values": [
      {"measurement": "Kd", "setting": "DH270.6 Fab (human) [5]", "result": 2.76, "unit": "nM"},
      {"measurement": "Kd", "setting": "[6]", "result": 19, "unit": "nM"},
      {"measurement": "Kd", "setting": "[7]", "result": 46, "unit": "nM"},
      {"measurement": "Kd", "setting": "[8]", "result": 44, "unit": "nM"},
      {"measurement": "Kd", "setting": "DH270.6 Fab (human) [9]", "result": 11, "unit": "nM"}
    ]},
    {"molecule": "DH270.6 T98RH: DH270.6 Fab with heavy-chain T98 reverted to Arg", "values": [
      {"measurement": "binding with 92BR SOSIP.664 Env trimer", "setting": "wild-type 92BR SOSIP.664; reversion mutant of DH270.6, Fig. 4b", "result": "only negligible residual binding"}
    ]},
    {"molecule": "DH270.6 Y48LL: DH270.6 Fab with light-chain Y48 mutated to leucine, as in the UCA (antibody, V domains shown) VH: QVQLVQSGAQMKNPGASVKVSCAPSGYTFTDFYIHWLRQAPGQGLQWMGWMNPQTGRTNTARNFQGRVTMTRDTSIGTAYMELRSLTSDDTAIYYCTTGGWISLYYDSSYYPNFDHWGQGTLLTVSS VL: QSALTQPASVSGSPGQSITISCTGTKYDVGSHDLVSWYQQYPGKVPKLMIYEVNKRPSGVSNRFSGSKSGNTASLTISGLRAEDEADYYCCSFGGSATVVCGGGTKVTVL", "values": [
      {"measurement": "change in Env interaction/affinity of DH270.6 mutant relative to DH270.6", "setting": "wild-type 92BR SOSIP.664; Fig. 4b", "result": "fourfold lower affinity"},
      {"measurement": "Kd", "setting": "wild-type 92BR SOSIP.664", "result": "44 ± 2", "unit": "nM"}
    ]}
  ]
}
